Read-outs that look alike come from different tables or passages of the source. Where no end group is shown, it is not given here.
B1: 12G1 (antibody, V domains shown)
VH: QIQLVQSGPELRKPGETVRISCKASGYTFTTAGMQWVQKMPGKGLKWIGWINTHSGVPKYAEDFKGRFAFSLETSASTAYLQISNLKNEDTATYFCARTSWAPYWGQGTLVTVSA
VL: not shown
B2: 3C11 (antibody, V domains shown)
VH: EVQLQQSGAELVKPGASVKLSCTASGFNIKDTYIHWMKQRPEQGLEWIGRIDPANGNTKYDPEFQDKATIAADTSSNTAYLQLSSLTSEDTAVYYCSNWDYFDYWGQGTALTVSS
VL: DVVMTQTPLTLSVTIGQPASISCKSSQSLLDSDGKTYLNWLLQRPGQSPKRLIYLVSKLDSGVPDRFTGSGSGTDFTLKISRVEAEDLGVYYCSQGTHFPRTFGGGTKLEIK
B3: 12B12 (antibody, V domains shown)
VH: EVQLQQSGAELVKPGASVKLSCTASGFNIKDTYIHWVKQRPEQGLEWIGRIDPANGNTNYDPKFQDKATITADTSSNTAYLQFSSLTSEDTAVYYCSNWDYFDYWGQGTTLTVSS
VL: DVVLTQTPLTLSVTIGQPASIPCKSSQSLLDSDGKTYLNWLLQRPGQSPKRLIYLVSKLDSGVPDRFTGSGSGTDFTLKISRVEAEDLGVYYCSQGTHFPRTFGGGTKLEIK
B4: 2E9 (antibody, V domains shown)
VH: EVKLLESGGGLVQPGGSLKLSCAASGFDFSRYWMNWVRQAPGKGLEWIGEINPHSSTINYAPSLKDKFIISRDNAKNTLYLQMSKVRSEDTALYYCGRGDYVDYWGLGTTLTVSS
VL: DIVMSQSPSSLAVSVGEKVTMSCKSSQSLLYSRNQKNYLAWYQQKPGQSPKLLIYWASTRESGVPDRFTGSGSGTDFTLTISSVKADDLAVYYCQQYYSYPRTFGGGTKLEIK
notes: also called test clone 2E9; test mAb 2E9
B5: 9D8 (antibody, V domains shown)
VH: QVTLKESGPGILQPSQTLSLTCSFSGFSLSTSGMGVGWIRQPSGKGLEWLAHIWWDGDKRYNPALRSRLTISKDTSSNQVFLKIASVDTADTATYYCTRIVVPNFLFTYWGQGTLVTVSA
VL: DVLMTQTPLSLPVSLGDQASISCRSSQSIVQSNGNTYLEWYLQKPGQSPNLLIYKVSNRFSGVPDRFSGSGSGTDFTLKISRVEAEDLGVYYCFQGSHVPFTFGSGTKLEIK
B6: 11B6 (antibody, V domains shown)
VH: QVQLQQSGAELMKPGASVKISCKATGYTFSSYWVEWVKLRPGHGLEWIGEIFPGSGSANYNEKFKGKATFTADTSSNTAYMQLSSLTSEDSAVYYCTSRWYPDYFEYWGQGTTLTVSS
VL: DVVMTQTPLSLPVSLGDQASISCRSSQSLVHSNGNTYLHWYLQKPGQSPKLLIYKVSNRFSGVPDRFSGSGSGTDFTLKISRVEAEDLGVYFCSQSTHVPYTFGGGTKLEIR

Key:
[1] = biological target: T1, cyclo(CGGTKEQGGGG), free (cyclized via a head-to-tail (C-G) amide bond); assay: indirect ELISA
T1 construct: free cyclic peptide, not conjugated; also called (2,4)-C-FREE
T1 peptide: CGGTKEQGGGG

[2] = biological target: T2, HSA (human, UniProt P02768 25-609); assay: indirect ELISA
T2 construct: irrelevant antigen in ELISA; read as human serum albumin; also called Hum; SA; HAS

[3] = biological target: T3, cyclo(CGGTKEQGGGG)-BSA (also: conjugated to BSA via maleimide-based coupling); assay: indirect ELISA
T3 construct: also called (2,4)-C-BSA; 2,4-C-BSA
T3 peptide: cyclo(CGGTKEQGGGG)

[4] = biological target: T4, Bovine serum albumin (BSA) (bovine, UniProt P02769 25-607); assay: indirect ELISA
T4 construct: carrier protein alone as ELISA control

[5] = biological target: T5, Human Transferrin (human, UniProt P02787 20-698); assay: indirect ELISA
T5 construct: irrelevant antigen in ELISA; also called HT

[6] = biological target: T6, alpha-synuclein sonicated preformed fibrils (soluble fibrils) (human, UniProt P37840 1-140); assay: SPR, antibody immobilized, kinetic fitting, 1:1 model
[7] = biological target: T7, alpha-synuclein oligomers (UniProt P37840 1-140); assay: as above
[8] = biological target: T6, alpha-synuclein sonicated preformed …; assay: SPR, antibody immobilized (~5000 RU), serial dilutions of analyte
[9] = biological target: T6, alpha-synuclein sonicated preformed …; assay: cell-based or functional assay
[10] = biological target: T7, alpha-synuclein oligomers; assay: cell-based or functional assay
[11] = biological target: T8, cyclo(CGTKEQGGGG)-BSA (also: conjugated to BSA via maleimide-based coupling); assay: indirect ELISA
T8 construct: also called (1,4)-C-BSA; 1,4-C-BSA
T8 peptide: cyclo(CGTKEQGGGG)

[12] = biological target: T3, cyclo(CGGTKEQGGGG)-BSA; assay: indirect ELISA
[13] = biological target: T9, cyclo(CGGTKEQGG)-BSA (also: conjugated to BSA via maleimide-based coupling); assay: indirect ELISA
T9 construct: also called (2,2)-C-BSA; (2, 2) C-BSA
T9 peptide: cyclo(CGGTKEQGG)

[14] = biological target: T6, alpha-synuclein sonicated preformed …; assay: Millipore SMC, antibody-coated magnetic particles, detection with labeled 4D6
[15] = biological target: T7, alpha-synuclein oligomers; assay: as above
[16] = biological target: T4, Bovine serum albumin (BSA); assay: indirect ELISA; remark: listed apart in the source
[17] = biological target: T5, Human Transferrin; assay: indirect ELISA; remark: listed apart in the source
[18] = biological target: T10, cyclo(CGGGGEKTKGG)-BSA (also: conjugated to BSA); assay: indirect ELISA
T10 construct: also called ASPEP(4,2)-C-BSA
T10 peptide: cyclo(CGGGGEKTKGG)

[19] = biological target: T11, human complement factor H (HCFH) (human, UniProt P08603 19-1231); assay: indirect ELISA
T11 construct: unrelated protein in ELISA

[20] = biological target: T12, cyclo(CGGGEKTKGG)-BSA (also: conjugated to BSA via maleimide-based coupling); assay: indirect ELISA
T12 construct: also called ASPEP(3,2)-C-BSA
T12 peptide: cyclo(CGGGEKTKGG)

[21] = biological target: alpha-synuclein in Lewy Body Disease (LBD/DLB) brain (human, UniProt P37840 1-140); assay: dot blot signal on LBD brain extract over control brain extract
[22] = biological target: T6, alpha-synuclein sonicated preformed …
[23] = biological target: T7, alpha-synuclein oligomers; assay: SPR, antibody immobilized, kinetic fitting, 1:1 model; antigen form: oligomers
[24] = biological target: T13, Linear CGGTKEQGGGG-BSA (also: conjugated to BSA); assay: indirect ELISA
T13 construct: linear peptide-BSA screening antigen; also called (2,4)-L-BSA; 2,4-L-BSA
T13 peptide: CGGTKEQGGGG

[25] = biological target: T8, cyclo(CGTKEQGGGG)-BSA; assay: indirect ELISA
[26] = biological target: T14, Linear CGGTKEQGG-BSA (also: conjugated to BSA); assay: indirect ELISA
T14 construct: linear peptide-BSA screening antigen; also called (2,2)-L-BSA; (2, 2) L-BSA
T14 peptide: CGGTKEQGG

[27] = biological target: T3, cyclo(CGGTKEQGGGG)-BSA; assay: indirect ELISA
[28] = biological target: T9, cyclo(CGGTKEQGG)-BSA; assay: indirect ELISA
[29] = biological target: T2, HSA; assay: indirect ELISA; remark: listed apart in the source
[30] = biological target: T5, Human Transferrin; assay: indirect ELISA; remark: listed apart in the source
[31] = biological target: T15, Linear CGTKEQGGGG-BSA (also: conjugated to BSA); assay: indirect ELISA
T15 construct: linear peptide-BSA screening antigen; also called (1,4)-L-BSA; 1,4-L-BSA
T15 peptide: CGTKEQGGGG

[32] = biological target: T16, Linear CGGGEKTKGG-BSA (also: conjugated to BSA); assay: indirect ELISA
T16 construct: linear peptide-BSA screening antigen; also called ASPEP(3,2)-L-BSA
T16 peptide: CGGGEKTKGG

[33] = biological target: T17, cyclo(CGGGGEKTKGG), free (cyclized via a head-to-tail (C-G) amide bond); assay: indirect ELISA
T17 construct: free cyclic 4,2 construct; also called 4,2-Free-C
T17 peptide: CGGGGEKTKGG

[34] = biological target: T4, Bovine serum albumin (BSA); assay: indirect ELISA; remark: listed apart in the source
[35] = biological target: T5, Human Transferrin; assay: indirect ELISA; remark: listed apart in the source
[36] = biological target: T10, cyclo(CGGGGEKTKGG)-BSA; assay: indirect ELISA
[37] = biological target: T11, human complement factor H (HCFH); assay: indirect ELISA; remark: listed apart in the source
[38] = biological target: T12, cyclo(CGGGEKTKGG)-BSA; assay: indirect ELISA

T4 sequence (P02769 25-607 limits assumed): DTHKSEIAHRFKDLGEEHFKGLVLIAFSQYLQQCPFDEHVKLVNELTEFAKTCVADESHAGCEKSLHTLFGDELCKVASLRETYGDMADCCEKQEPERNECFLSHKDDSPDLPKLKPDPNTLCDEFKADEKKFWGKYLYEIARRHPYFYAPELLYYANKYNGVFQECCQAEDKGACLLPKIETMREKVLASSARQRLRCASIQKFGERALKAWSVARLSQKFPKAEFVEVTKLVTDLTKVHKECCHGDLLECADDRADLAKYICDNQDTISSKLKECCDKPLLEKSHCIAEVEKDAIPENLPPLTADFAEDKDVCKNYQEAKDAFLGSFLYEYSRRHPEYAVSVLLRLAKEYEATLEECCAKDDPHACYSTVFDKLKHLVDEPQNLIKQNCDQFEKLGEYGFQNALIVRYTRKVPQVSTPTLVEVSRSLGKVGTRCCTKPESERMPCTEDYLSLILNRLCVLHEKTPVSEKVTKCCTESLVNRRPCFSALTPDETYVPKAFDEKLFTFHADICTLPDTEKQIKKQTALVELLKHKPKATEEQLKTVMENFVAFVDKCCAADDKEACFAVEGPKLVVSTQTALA
T5 sequence (P02787 20-698 limits assumed): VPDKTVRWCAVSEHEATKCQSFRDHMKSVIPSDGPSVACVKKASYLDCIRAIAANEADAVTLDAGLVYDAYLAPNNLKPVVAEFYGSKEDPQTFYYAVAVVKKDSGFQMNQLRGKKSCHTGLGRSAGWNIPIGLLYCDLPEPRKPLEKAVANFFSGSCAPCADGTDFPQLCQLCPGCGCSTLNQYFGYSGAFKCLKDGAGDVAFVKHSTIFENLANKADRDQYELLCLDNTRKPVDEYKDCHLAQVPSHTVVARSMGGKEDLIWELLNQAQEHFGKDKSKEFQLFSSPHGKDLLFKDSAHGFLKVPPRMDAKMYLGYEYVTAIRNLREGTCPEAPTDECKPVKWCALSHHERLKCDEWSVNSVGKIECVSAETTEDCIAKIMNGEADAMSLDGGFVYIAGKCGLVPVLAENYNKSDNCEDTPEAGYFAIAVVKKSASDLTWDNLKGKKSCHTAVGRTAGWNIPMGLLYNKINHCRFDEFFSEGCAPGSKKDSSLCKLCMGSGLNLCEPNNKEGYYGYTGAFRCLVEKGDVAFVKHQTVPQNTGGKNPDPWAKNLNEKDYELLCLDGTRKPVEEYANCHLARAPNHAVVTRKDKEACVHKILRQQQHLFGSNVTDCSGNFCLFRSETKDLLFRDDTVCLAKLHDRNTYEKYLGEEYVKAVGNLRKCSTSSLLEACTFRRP
T11 sequence (P08603 19-1231 limits assumed): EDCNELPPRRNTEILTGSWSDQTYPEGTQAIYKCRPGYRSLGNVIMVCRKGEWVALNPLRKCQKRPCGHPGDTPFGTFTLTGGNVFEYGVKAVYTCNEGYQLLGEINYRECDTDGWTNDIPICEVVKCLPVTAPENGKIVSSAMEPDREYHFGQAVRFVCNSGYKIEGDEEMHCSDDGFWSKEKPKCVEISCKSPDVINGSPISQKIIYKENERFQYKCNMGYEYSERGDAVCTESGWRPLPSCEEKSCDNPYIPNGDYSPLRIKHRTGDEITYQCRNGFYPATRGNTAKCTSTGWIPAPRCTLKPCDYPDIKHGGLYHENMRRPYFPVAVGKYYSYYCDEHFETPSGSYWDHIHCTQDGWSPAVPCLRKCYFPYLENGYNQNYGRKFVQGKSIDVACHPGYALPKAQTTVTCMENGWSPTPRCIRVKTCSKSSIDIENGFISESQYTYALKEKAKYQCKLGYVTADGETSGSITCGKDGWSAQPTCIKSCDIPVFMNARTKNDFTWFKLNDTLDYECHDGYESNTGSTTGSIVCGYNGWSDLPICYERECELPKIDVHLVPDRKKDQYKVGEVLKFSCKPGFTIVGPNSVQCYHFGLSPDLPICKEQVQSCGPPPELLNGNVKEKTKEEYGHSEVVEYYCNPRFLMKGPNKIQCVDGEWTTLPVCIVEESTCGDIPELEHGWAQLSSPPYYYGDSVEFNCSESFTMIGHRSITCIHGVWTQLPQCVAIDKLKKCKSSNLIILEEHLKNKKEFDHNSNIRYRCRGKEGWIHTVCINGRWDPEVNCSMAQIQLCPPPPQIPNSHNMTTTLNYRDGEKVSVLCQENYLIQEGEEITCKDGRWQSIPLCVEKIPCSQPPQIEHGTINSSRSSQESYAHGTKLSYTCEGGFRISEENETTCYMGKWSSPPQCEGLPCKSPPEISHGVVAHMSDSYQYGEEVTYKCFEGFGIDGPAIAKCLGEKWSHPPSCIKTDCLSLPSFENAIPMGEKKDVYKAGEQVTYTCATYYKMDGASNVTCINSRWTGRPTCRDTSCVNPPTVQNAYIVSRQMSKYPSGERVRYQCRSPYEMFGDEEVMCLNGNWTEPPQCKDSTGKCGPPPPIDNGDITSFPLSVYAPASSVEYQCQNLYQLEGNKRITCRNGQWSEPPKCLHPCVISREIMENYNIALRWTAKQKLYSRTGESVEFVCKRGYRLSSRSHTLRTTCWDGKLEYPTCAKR

Row | Binder | ELISA reading [1] | ELISA reading [2] | ELISA reading [3] | ELISA reading [4] | ELISA reading [5] | Kd [6] [nM] | koff [6] [s⁻¹] | kon [6] [M⁻¹ s⁻¹] | Kd [7] [nM] | koff [7] [s⁻¹] | kon [7] [M⁻¹ s⁻¹] | fold binding affinity, soluble fibril relative to monomer [8] [fold] | endogenous phosphorylated α-syn aggregates in neurons exposed to PFFs, antibody at 0.05 µM [9] | dopaminergic neuron survival, antibody at 250 nM [10] | ELISA reading [11] | ELISA reading [12] | fold selectivity for fibrils versus monomers (from LLoQ) [14] [fold] | fold selectivity for oligomers versus monomers (from LLoQ) [15] [fold] | ELISA reading [16] | ELISA reading [17] | other results
1 | B1 | 0.437 | 0.052 | 1.01 | 0.06 | 0.071 | 20 | 5.62e-05 | 2820 | 1610 | 0.00155 | 966 | > 50 | 148 % of the control | 90.6 % of the control | 2.07 | 0.756 | 175000 | 35000 |  |  | ELISA reading [13]: 1.61
2 | B2 |  |  |  |  |  |  |  |  |  |  |  |  | 153 % of the control |  |  |  |  |  | 0.052 | 0.054 | ELISA reading [18]: 0.567; ELISA reading [19]: 0.064; ELISA reading [20]: 1.17; dopaminergic neuron survival, antibody at 50 nM [10]: 89.6 % of the control; Fold of reactivity LBD vs. Control (LBD / Control) [21]: 26.6 fold
3 | B3 |  |  |  |  |  |  | 2.09e-05 | 2530 |  | 0.0013 | 1320 | > 10 | 145 % of the control | 92.6 % of the control |  |  |  |  | 0.055 | 0.045 | fold binding affinity, soluble fibril relative to tetramer [8]: > 20 fold; Kd [22]: 8 nM; ELISA reading [18]: 0.851; ELISA reading [19]: 0.059; ELISA reading [20]: 1.28; Kd [23]: 985 nM; Fold of reactivity LBD vs. Control (LBD / Control) [21]: 20.3 fold
4 | B4 |  |  |  |  |  | 9 |  |  | 431 |  |  |  |  |  |  |  |  |  |  |  | ELISA reading [24]: 0.048; ELISA reading [25]: 1.91; ELISA reading [26]: 0.051; ELISA reading [27]: 0.055; ELISA reading [28]: 0.047; ELISA reading [29]: 0.044; ELISA reading [30]: 0.054
5 | B5 | 0.227 | 0.054 | 1.18 | 0.055 | 0.06 |  |  |  |  |  |  |  |  | 96.5 % of the control | 0.048 | 0.726 | 93300 | 9300 |  |  | ELISA reading [31]: 0.043
6 | B6 |  |  |  |  |  |  |  |  |  |  |  |  |  | 81 % of the control |  |  |  |  |  |  | ELISA reading [32]: 0.044; ELISA reading [33]: 1.27; ELISA reading [34]: 0.041; ELISA reading [35]: 0.051; ELISA reading [36]: 1.59; ELISA reading [37]: 0.042; ELISA reading [38]: 0.047

From patent US20230051538A1 (UNIVERSITY OF BRITISH COLUMBIA, published 2023)
